{
  "source": "patent US20200181597A1",
  "about": "“Composition and Application of Arginine-depleting Agents for Cancer, Obesity, Metabolic Disorders, and Related Complications and Comorbidities” (THE HONG KONG POLYTECHNIC UNIVERSITY, priority 2018, published 2020)",
  "key": {"[1]": {"experiment": "Blood pressure by tail cuff method in DIO mice", "assay_type": "in vivo", "conditions": "600U at 7-day intervals for 5 weeks", "from_the_text": "Obesity is associated with cardiovascular disease and hypertension. DIO mice treated with 600U N-ABD094-rhArg (SEQ ID NO: 50) at 7-day intervals for 5 weeks were subjected to measurement of blood pressure by tail cuff method using the CODA Non-invasive Blood Pressure System (Kents Scientific Corporation)."}, "[2]": {"experiment": "LFD-fed mice treated for 8 months: anti-drug antibody and safety", "assay_type": "in vivo, C57BL/6J male mice", "description": "FIG. 56 illustrates that C57BL/6J male mice fed a LFD and received an intraperitoneal injection of 500U N-ABD094-rhArg (SEQ ID NO: 50) [LFD(rhArg) group] once a week for 8 months starting from 5 week old had developed non-neutralizing anti-drug antibody. (A) Using an ELISA assay, anti-rhArg antibodies, with an average antibody titer of 10^8, could be detected in the plasma of LFD-fed mice treated with N-ABD094-rhArg. (B) The plasma was incubated with 1,000U/mL N-ABD094-rhArg (rhArg*) for 1 hr followed by measurement of arginase activity. There was no reduction in arginase activity, showing that the antibodies generated in the animal against the drug were not neutralizing antibodies. Data are expressed as mean±SEM, n=3 for each group.\nGeneration of neutralizing antibodies may affect the pharmacodynamics, pharmacokinetic, stability and efficacy of a drug. To determine the immunogenic response, 8 week old C57BL/6J male mice fed a LFD received i.p. injection of 500U of N-ABD094-rhArg (SEQ ID NO: 50), or saline as vehicle control, at 7-day intervals for 8 months.\nTo assess the safety of long-term use, serum and urine samples from LFD-fed mice treated with N-ABD094-rhArg (SEQ ID NO: 50) for 8 months were collected for analysis of ALT and AST, which are commonly used biomarkers of liver damage, and serum creatinine and urine albumin/creatinine ratio for assessing kidney functions."}, "[3]": {"experiment": "Prevention of HFD-induced obesity, male mice", "assay_type": "in vivo, C57BL/6J male mice", "from_the_text": "To determine the efficacy of N-ABD094-rhArg (SEQ ID NO: 50) in preventing mice from diet-induced obesity and associated metabolic disorders, C57BL/6J male mice were fed a high-fat diet containing 60 kcal % fat (HFD; Research Diets, D12492) from 8 week old for 12 weeks, and concurrently received i.p. injection of 200-300U N-ABD094-rhArg (SEQ ID NO: 50) or saline as vehicle control at 7-day intervals. C57BL/6J mice fed a matched low fat diet containing 10 kcal % fat (LFD; Research Diets, D12450J) and injected with saline served as the lean control of various measurements.\nTwo cohorts, with n=5 in each group, had been separately conducted. Mice were housed in group of 5. Similar results were obtained in the two independent cohorts. Data of one cohort of mice were summarized in Examples 18-22."}, "[4]": {"tested_on": "mouse primary hepatocytes", "experiment": "Mouse primary hepatocytes: MTT viability and pAkt Western blot", "assay_type": "cell-based", "description": "Data are expressed as mean±SEM, n=5 for each group. […] (C) Western blot analysis of protein levels of phosphorylated Akt (pAkt) (marker of insulin signaling) in […] […] Lane 1: con; Lane 2: 5U/mL N-ABD094-rhArg (SEQ ID NO: 50); Lane 3: 100 nM insulin; Lane 4: 5U/mL N-ABD094-rhArg (SEQ ID NO: 50) +100 nM insulin.\nObesity is highly associated with insulin resistance. We therefore conducted both in vivo and in vitro study to determine whether N-ABD094-rhArg (SEQ ID NO: 50) treatment will have effects on insulin sensitivity. […] […] Cells were then collected for Western blot analysis to detect phosphorylated protein kinase B (pAkt), which is commonly used as marker of insulin signaling."}, "[5]": {"tested_on": "HT29", "experiment": "cells", "conditions": "HT29, Day 3", "description": "(§1) The in vitro efficacy of ABD and rhArg fusion protein was tested on human colon cancer cell lines. Human colon cancer cell lines (HCT116, LOVO and HT29) were seeded in 96-well plate at densities of 5×10^3 cells/well. After 1 day of incubation, the culture medium was replaced with medium containing different concentrations (2, 0.4, 0.08, 0.016 and 0.0032 U/ml) of N-ABD094-rhArg (SEQ ID NO: 50). MTT assay was conducted at Day 3 [3 days after N-ABD094-rhArg (SEQ ID NO: 50) treatment] to determine the IC50 values. The culture medium was replaced with MTT solution (1 mg/ml) (Invitrogen) and incubated at 37° C. for 4 h. After incubation, MTT solution was replaced with dimethyl sulfoxide (DMSO), and the absorbance at 570 nm was measured with a reference of 650 nm. The cell viability was determined by dividing the absorbance of N-ABD094-rhArg-treated cells by the average absorbance of untreated cells. […] Three independent sets of experiments (n=3) were performed for each cell line.\n(§2) MTT assay was conducted at Day 3. Three independent sets of experiments (n=3) were performed for each cell line.\n(§3) For drug-combination assay, a non-constant ratio analysis was performed (Hastak et al., 2010, Cancer Res. 70(20):7970-7980). Colon cancer cells were seeded and after 1 day of incubation, the culture medium was replaced with medium containing different concentrations of N-ABD094-rhArg (SEQ ID NO: 50) (2, 0.4, 0.08, 0.016, 0.0032 U/ml) combined with fixed amount of CQ according to its IC50. MTT assay was conducted at Day 3. The combination index (CI) of combined N-ABD094-rhArg (SEQ ID NO: 50) and CQ treatment was analyzed by software CalcuSyn version 2.1. Three independent sets of experiments (n=3) were performed for each cell line."}, "[6]": {"tested_on": "LOVO", "experiment": "cells", "conditions": "LOVO, Day 3", "description": "as §1, §2, §3"}, "[7]": {"tested_on": "HCT116", "experiment": "cells", "conditions": "HCT116, Day 3", "description": "as §1, §2, §3"}},
  "data": [
    {"molecule": "N-ABD094-rhArg: albumin binding domain ABD094 fused N-terminally to recombinant human arginase I, SEQ ID NO: 50 (protein, Mn2+; N-ABD094-rhArg, Synthesized in the Lab) MHHHHHHDEAVDANSLAEAKEAANAELDSYGVSDFYKRLIDKAKTVEGVEALKDAILAALPSGSNNNNNNGSGGMSAKSRTIGIIGAPFSKGQPRGGVEEGPTVLRKAGLLEKLKEQECDVKDYGDLPFADIPNDSPFQIVKNPRSVGKASEQLAGKVAEVKKNGRISLVLGGDHSLAIGSISGHARVHPDLGVIWVDAHTDINTPLTTTSGNLHGQPVSFLLKELKGKIPDVPGFSWVTPCISAKDIVYIGLRDVDPGEHYILKTLGIKYFSMTEVDRLGIGKVMEETLSYLLGRKKRPIHLSFDVDGLDPSFTPATGTPVVGGLTYREGLYITEEIYKTGLLSGLDIMEVNPSLGKTPEEVTRTVNTAVAITLACFGLAREGNHKPIDYLNPPK", "values": [
      {"measurement": "systolic and diastolic blood pressure and heart rate vs vehicle-treated DIO mice", "setting": "[1]", "value": "significantly lower"},
      {"measurement": "average anti-rhArg antibody titer in plasma (ELISA)", "setting": "[2]; 500U i.p. weekly for 8 months", "value": "10^8"},
      {"measurement": "serum ALT, AST, creatinine and urine albumin/creatinine ratio vs vehicle", "setting": "[2]; 500U weekly for 8 months", "value": "did not show any significant differences"},
      {"measurement": "plasma arginine concentrations throughout the study period", "setting": "[2]; 500U weekly for 8 months, Biochrom 30 detection limit", "value": "< 3", "unit": "µM"},
      {"measurement": "vascular reactivity of isolated arteries (phenylephrine, acetylcholine, sodium nitroprusside) vs vehicle", "setting": "[2]; 500U weekly for 8 months, wire myography", "value": "no significant differences"},
      {"measurement": "effect of anti-drug antibodies on arginase activity", "setting": "[2]; plasma incubated with 1,000U/mL drug for 1 hr", "value": "did not have neutralizing effects"},
      {"measurement": "HFD-induced downregulation of Acox1 in BAT", "setting": "[3]; 12 weeks HFD", "value": "block the downregulation"},
      {"measurement": "HFD-induced upregulation of adipogenic transcription factors and lipogenic enzymes in the liver", "setting": "[3]; 12 weeks HFD", "value": "significantly suppress"},
      {"measurement": "mRNA of Ucp1 and Pgc1α in BAT", "setting": "[3]; 12 weeks HFD", "value": "significantly upregulated"},
      {"measurement": "mRNA of proinflammatory adipokines (Mcp1, Il1b, Tnfa) in perigonadal WAT", "setting": "[3]; 12 weeks HFD", "value": "suppress the upregulation"},
      {"measurement": "serum levels of Mcp1 (ELISA)", "setting": "[3]; 12 weeks HFD", "value": "suppress an elevation"},
      {"measurement": "weight of kidney, pancreas and heart", "setting": "[3]; 12 weeks HFD", "value": "effectively prevent weight gain"},
      {"measurement": "weight gain and expansion of WAT caused by HFD", "setting": "[3]; 200-300U i.p. at 7-day intervals, 12 weeks, concurrent with HFD", "value": "effectively prevented"},
      {"measurement": "adipocyte hypertrophy in WAT (histology)", "setting": "[3]; 200-300U weekly, 12 weeks, HFD", "value": "prominently suppressed"},
      {"measurement": "mRNA of Pparg, Srebp1c, Acc1, Scd1 in gWAT", "setting": "[3]; 200-300U weekly, 12 weeks, HFD", "value": "dramatic downregulation"},
      {"measurement": "mRNA of Pparg, Srebp1c, Acc1, Scd1 in skeletal muscle", "setting": "[3]; 200-300U weekly, 12 weeks, HFD", "value": "significantly downregulated"},
      {"measurement": "development of hyperglycemia and hyperinsulinemia (fasting blood glucose, plasma insulin, HOMA-IR)", "setting": "[3]; concurrent weekly treatment, HFD", "value": "completely prevent"},
      {"measurement": "development of HFD-induced impaired glucose tolerance (GTT)", "setting": "[3]; concurrent weekly treatment, GTT at 5 and 10 weeks", "value": "completely prevent"},
      {"measurement": "development of HFD-induced insulin resistance (ITT)", "setting": "[3]; concurrent weekly treatment, ITT at 6 and 11 weeks", "value": "completely prevent"},
      {"measurement": "development of hyperleptinemia, hypercholesterolemia, hypertriglyceridemia, hyper-free fatty acidemia", "setting": "[3]; fasting plasma at 12 weeks of HFD", "value": "completely prevent"},
      {"measurement": "phosphorylation of Akt upon insulin stimulation", "setting": "[4]; 5U/mL 24 hr, then 100 nM insulin 20 min", "value": "prominent increase"},
      {"measurement": "cell viability (MTT)", "setting": "[4]; 5U/mL, 48 hr", "value": "did not affect cell viability"},
      {"measurement": "IC50", "setting": "[5]", "value": 0.58, "unit": "U/ml"},
      {"measurement": "IC50", "setting": "[6]", "value": 0.38, "unit": "U/ml"},
      {"measurement": "IC50", "setting": "[7]", "value": 0.22, "unit": "U/ml"}
    ]}
  ]
}
